Results as given in the nanobody polyreactivity screen of Harvey et al. (2022).

Assay: yeast display, Sf9 membrane polyspecificity reagent, FACS + sequencing; frameworks hold sequencing errors
Procedure, shortened: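 Sorting gates, low and high (top ~1%), were placed on anti-HA fluorescence to track expression and on streptavidin fluorescence to track reagent binding. A clone's polyreactivity label is taken from the gate it came out of. The reagent was 10% biotinylated, detergent-solubilized Sf9 membrane, applied for 1 hour at 4 °C to galactose-induced yeast display cells.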

Sequence	polyreactivity (PSR sort gate)
QVQLVESGGGLVQAGGSLRLSCAASGRIFYRYAMGWYRQAPWKEWELVADISSGTSTNYADSVKGRFTLSRDNAKNTVDLQMNSLKPEDTAVYYCAADEVRSAWRCSSPPDYDHWGQGTQVTVSS	low polyreactivity
QVQLVESGGGLVQAGGSLRLSCAASGRIFYSNAMGWYRQAPGKERELVAAISWSTGSTYYADSVKGRFTISRDHAKNTVYLQMNSLKPEDTAVYYCYKDDAQTRSFASTWYDYWGQGTQVTVSS	high polyreactivity
QVQLVESGGGLVQAGGSLRLSCAASGRIFYSNAMGWYRQAPGKERELVAAITRSGGGTYYADSVKGRFTISRDNAKNTVYLQMNSLKPEDTAVYYCARPAFFRSLSTSDDYWGQGTQVTVSS	high polyreactivity
QVQLVESGGGLVQAGGSLRLSCAASGRIFYSNAMGWYRQAPGKERELVATISTGGSTYADSVKGRFTISRDNAKNTVYLQMNSLKPEETAVYYCAVDEWRWRVGAVAYYYWGQGTQVTVSS	low polyreactivity
QVQLVESGGGLVQAGGSLRLSCAASGRIFYSNTMGWYRQAPGKERELVARIDTGGGSTYADSVKGRFTISRDNAKNTVYLQMNSLKPEDTAVYYCAALKFEAWAGEDYWGQGTQVTVSS	low polyreactivity
QVQLVESGGGLVQAGGSLRLSCAASGRIFYSNTMGWYRQAPGKERELVARIDTGGGSTYADSVKGRFTISRDNAKNTVYLQMNSLKPEDTAVYYCAKTIAVNTWYYYWGQGTQVTVSS	low polyreactivity
QVQLVESGGGLVQAGGSLRLSCAASGRIFYSNTMGWYRQAPGKERELVARIDTGGGSTYADSVKGRFTISRDNAKNTVYLQMNSLKPEDTAVYYCNKKGRWRSWGSTSLVSMDYWGQGTQVTVSS	low polyreactivity
QVQLVESGGGLVQAGGSLRLSCAASGRIFYSNVMGWYRQAPGKERELVAAISGRTGGTYYADSVKGRFTISRDNAKNTVYLQMNSLIPEDTAVYYCAARVIYYYGSGPYDYWGQGTQVTVSS	low polyreactivity
QVQLVESGGGLVQAGGSLRLSCAASGRIFYSYAMAWYRQAPGKERELVAAISSRTGSTYYADSVKGRFTISRDNAKITVYLQMNSLIPEDTAVYYCAARKKYRFDYWGQGTQVTVSS	high polyreactivity
QVQLVESGGGLVQAGGSLRLSCAASGRIFYSYAMGWYRQAPGKERELVAAINSGDRTNYADSVKGRFTISRDNAKNTVYLQMNSLKPEDTAVYYCATDDYPWRRHPWYAGYDSWGQGTQVTVSS	low polyreactivity
QVQLVESGGGLVQAGGSLRLSCAASGRIFYSYAMGWYRQAPGKERELVAAIRSTGSTNYADSVKGRFTISRDNAKNTVYLQMNSLKPEDTAVYYCAARTSYRSSLYGYWGQGTQVTVSS	high polyreactivity
QVQLVESGGGLVQAGGSLRLSCAASGRIFYSYAMGWYRQAPGKERELVAGINWRGSNTYYADSVKGRFTISRDNAKNTVYLQINSLKPEDTAVYYCKAGRRQDYRYNYWGQGTQVTVSS	high polyreactivity
QVQLVESGGGLVQAGGSLRLSCAASGRIFYSYAMGWYRQAPGKERELVARITRGSSTYYADSVKGRFTISRDNAKNTVYLQMNSLKPEDTAVYYCAAAVYFQVAFAYYYWGQGTQVTVSS	low polyreactivity
QVQLVESGGGLVQAGGSLRLSCAASGRIFYSYAMGWYRQAPGKERELVATISRRGGSTYYADSVKGRFTISRDNAKNTVYLQMNSLKPEDTAVYYCNKGIPTRSVRSYDYWGQGTQVTVSS	high polyreactivity
QVQLVESGGGLVQAGGSLRLSCAASGRIFYTNAMGWYRQAPGKERELVAGITGSGDSTYYADSVKGRFTISRDNAKNTVYLQMNSLKPEDTAVYYCAARWRYVLMDYWGQGTQVTVSS	low polyreactivity
QVQLVESGGGLVQAGGSLRLSCAASGRIFYTNGMAWYRQAPGKERELVATIRSGDGRTYYADSVKGRFTISRDNAKNTVYLQMNSLKPEDTAVYYCNASRVVYRQAYLYGFDYWGQGTQVTVSS	low polyreactivity
QVQLVESGGGLVQAGGSLRLSCAASGRIFYTYAMGWYRQAPGKERELVAAISRSGVSTYYADSVKGRFTISRDTAKNTVYLQMNSLKPEDTAVYYCAARWRSGFTSGDYWGQGTQVTVSS	low polyreactivity
QVQLVESGGGLVQAGGSLRLSCAASGRIFYTYAMGWYRQAPGKERELVAAITTSGGRTYYADSVKGRFTISRDNAKNTVYLQMNSLKPEDTAVYYCNKLSSDSYNYWGQGTQVTVSS	high polyreactivity
QVQLVESGGGLVQAGGSLRLSCAASGRIFYTYAMGWYRQAPGKERELVATISRSSSTYYADSVKGRFTISRDNAKNTVYLQMNSLKPEDTAVYYCATRSASQLLDYWGQGTQVTVSS	low polyreactivity
QVQLVESGGGLVQAGGSLRLSCAASGRIFYVNAMGWYRQAPGKERELVAAIRSAGGTYYADSVKGRFTISRDNAKNTVYLEMNWLNPEDSAVYYCNADASYREYRLYLIEMDYLGQGTQVTVSS	high polyreactivity
QVQLVESGGGLVQAGGSLRLSCAASGRIFYVNAMGWYRQAPGKERELVATIRRGGDTNYADSVKGRFTISRDNAKNTVYLQMNSLKPEDTAVYYCASKAYQSSYQRYYWGQGTQVTVSS	high polyreactivity
QVQLVESGGGLVQAGGSLRLSCAASGRIFYVNGMGWYRQAPGNERELVAAIRISGGRTYYADSVKGRFTISRDYAKYTVYFQMNSLKPEDTAVYFCAKRYYYPYAGYDYWGQGTQVTVSS	high polyreactivity

Sequence	polyreactivity (PSR sort gate)
QVQLVESGGGLVQAGGSLRLSCAASGRIFYVYALGWYRQAPGKERELVAAIDWNGGTTYYADSVKGRFTISRDNAKNTVYLQMNSLKPEDTAVYYCAVSLQGYNQVDYYYWGQGTQVTVSS	high polyreactivity
QVQLVESGGGLVQAGGSLRLSCAASGRIFYVYAMGWYRQAPGKERELVAGIRSGGSTNYADSVKGRFTISRDNAKNTVYLLMNSLKPEDTAVYYCAVQSYGALSPQLVYRRYDYWGQGTQVTVSS	high polyreactivity
QVQLVESGGGLVQAGGSLRLSCAASGRIFYVYAMGWYRQAPGKERELVATITYRGDTDYADSVKGRFTSSRDNAKNTVYLQMNSRKPEDTAVYYCAKDFEAGDDYFAYDYWGQGTQVTVSS	low polyreactivity
QVQLVESGGGLVQAGGSLRLSCAASGRIFYVYTMGWYRQAPGKERELVAAISWSGGSTHYADSVKGRFTIARDNAKNTVYLQMNSLKPEDTAVYYCNKGVVSRVAFEYWGQGTQVTVSS	low polyreactivity
QVQLVESGGGLVQAGGSLRLSCAASGRIFYWNAMGWYRQAPGKEREFVAAISWSGGSTYADSVKGRFTISRDNAKNTVYLQMNSLKPEDTAVYYCATRVSRSFRAYDYWGQGTQVTVSS	high polyreactivity
QVQLVESGGGLVQAGGSLRLSCAASGRIFYYNAKGWYRQAPGKERELVATISRGGSTYYADSVKGRFTISRDNAKNTVDLQMNSLKPEDTAVYYCATRVLYYQSSYDYWGQGTQVTVSS	high polyreactivity
QVQLVESGGGLVQAGGSLRLSCAASGRIFYYNAMGWYRQAPGKERELVASITWSGARTYYADSVKGRFTISRDNAKNTVYLQMNSLKPEDTAVYYCNAATSYYTYTYGYWGQGTQVTVSS	high polyreactivity
QVQLVESGGGLVQAGGSLRLSCAASGRIFYYNDMGWYRQAPGKERELVAAITWTDDGTYYADSVKGRFTISRDYAKNTVYLQMNSLKPEDTAVYYFAAETFYGFEYWGQGTQVTLSS	low polyreactivity
QVQLVESGGGLVQAGGSLRLSCAASGRIFYYNGMGWYRQAPGKERELVAAISRGGSTYYADSVKGRFTISRDNAKNTVYLQMNSLKPEDTAVYYCAARWKPPYWGRYYYWGQGTQVTVSS	high polyreactivity
QVQLVESGGGLVQAGGSLRLSCAASGRIFYYNGMGWYRQAPGKERELVAAITANGGSTYYADSVKGRFTISRDNAKHTVYLQMNSLKPEDTAVYYCAAVYQLYYSAGRGYDYWGQGTQVTVSS	high polyreactivity
QVQLVESGGGLVQAGGSLRLSCAASGRIFYYNTMGWYRQAPGKERELVARITYSGGRTYYADSVKGRFTISRDNAKNTVYLQMNSLKPEDTAVYYCNAKPRYYQTGGGYWGQGTQVTVSS	high polyreactivity
QVQLVESGGGLVQAGGSLRLSCAASGRIFYYNVMGWYRQAHGKERELVASISYSSTRTYYADSVKGRFTISRDNAKNTVYLQMNRLKQEDTAVYYCAVDTYAYRGVSYWSERTYYYWGQGTQVNVSS	low polyreactivity
QVQLVESGGGLVQAGGSLRLSCAASGRIFYYYAMGWSRQAPGKERELVAAITRRGGSTYYADSVKGRFTISRDNAKNTVYLQMNSLKPEDPADYYCAKPDRTGWLDGEYWGQGTQVTVSS	low polyreactivity
QVQLVESGGGLVQAGGSLRLSCAASGRIFYYYAMGWYRPAPGKERELVAAINRDGGRTYYADSVKGRFTISRDNAKNTVYLQMNSLKPEDTAVYYCAASYGYVYTTSLDYWGQGTQVTVSS	low polyreactivity
QVQLVESGGGLVQAGGSLRLSCAASGRIFYYYAMGWYRQAPATERELFAGINSGGNTYADSVKGRFTISRDNAKNTVYLQMNSLKPEDTAVYYCATDFYSYAGGYYHHDHWGQGTQVTVSS	high polyreactivity
QVQLVESGGGLVQAGGSLRLSCAASGRIFYYYAMGWYRQAPGKERELVAAIRWSGGSTYYADSVKGRFTISRDNEKNTVYLQMNSLKPEDTAVYYCAADSRTNGYDYWGQGTQVTVSS	high polyreactivity
QVQLVESGGGLVQAGGSLRLSCAASGRIFYYYAMGWYRQAPGKERELVAAISSIDGTTYYADSVKGRFTISRDNAKNTVYLQMNSLKPEDTAVYYCAAEDPADQYDYWGQGTQVTVSS	high polyreactivity
QVQLVESGGGLVQAGGSLRLSCAASGRIFYYYAMGWYRQAPGKERELVAAISSIGGSTYADSVKGRFTISRDNAKNTVYLQMNSLKPEDTAVYYCAADGFKRLYTQVAHVRYDYWGQGTQVTVSS	low polyreactivity
QVQLVESGGGLVQAGGSLRLSCAASGRIFYYYAMGWYRQAPGKERELVAAISWSGGSTYYADSVKGRFTISRDNAKNTVYLQMNSLKPEDTAVYYCAAESRKYREYYYWGQGTQVTVSS	high polyreactivity
QVQLVESGGGLVQAGGSLRLSCAASGRIFYYYAMGWYRQAPGKERELVAVISRGGRTKYADSVKGRFTISRDNAKNTVYLQMNILKPEDTAVYYCAAYPSYYGDSGLRYDYWGQGTQVTVSS	high polyreactivity
QVQLVESGGGLVQAGGSLRLSCAASGRIFYYYDMGWYRQAPGKARELVAAITSAGITYYADSVKGRFTISRDNAKNTVYLQMNSLKPEDTAVYYCAVEFYDKRWPYRGGYWGQGTQVTVSS	low polyreactivity
